Assay: yeast display, Sf9 membrane polyspecificity reagent, FACS + sequencing; frameworks hold sequencing errors
Outline: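 Polyreactivity labels are assigned by the sorting gate from which each nanobody was recovered. The gates were low and high (top ~1%), set on anti-HA fluorescence for expression and streptavidin fluorescence for reagent binding. Before sorting, galactose-induced (36–48 hours) yeast display cells were stained for 1 hour at 4 °C with 10% biotinylated, detergent-solubilized Sf9 membrane reagent.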

Sequence | polyreactivity (PSR sort gate)
QVQLVESGGGLVQAGGSLRLSCAASGNIFVLYAMGWYRQAPGKERELVASITSDGITYYADSVKGRFTISRDNAKNTVYLQMNSLKPEDTAVYYCAVDRSYRYLPRGDYWGQGTQVTVSS | low polyreactivity
QVQLVESGGGLVQAGGSLRLSCAASGNIFVYYAMGWYRQAPGKERELVAAISFRGGTTYYADSVKGRFTISRDNAKNTVYLQMNSLKPEDTAVYYCAKDIFQIGYRRYDSWGQGTQVTVSS | low polyreactivity
QVQLVESGGGLVQAGGSLRLSCAASGNIFWGNAMGWYRQAPGKERELVATITTGGSTNYADSVKGRFTISRDNAKNTVYLQMNSLKPEDTAVYYCNKRTTTASHLTSDYWGQGTQVTVSS | low polyreactivity
QVQLVESGGGLVQAGGSLRLSCAASGNIFWWDAMGWYRQAPGKERELVAAITSDSTTYYADSVKGRFTISRDNAKNTVYLQMNSLKPEDTAVYYCAAYSYGGQGVDYGYWGQGTQVTVSS | low polyreactivity
QVQLVESGGGLVQAGGSLRLSCAASGNIFYINAMGWYRQAPGKERELVAAISSGGRTNYADSVKGRFTISRDNAKNTVYLQMNSLKPEDTAVYYCNADGWYAWRYYAPGGYDYWGQGTQVTVSS | low polyreactivity
QVQLVESGGGLVQAGGSLRLSCAASGNIFYKYAMGWYRQAPGKERELVAAITWRVVRTYYADSVKGRFTISRDNAKNTVYLQMNSLKPEDTAVYYCAALSRQSGDYWGQGTQVTVSS | high polyreactivity
QVQLVESGGGLVQAGGSLRLSCAASGNIFYLNTMGWYRQAPGKERELVASISRDGGRTYYADSVKGRFTISRDNAKNTVYLQMNSLKPEDTAVYYCAAVVLHHFTEVGQHYYWGQGTQVTVSS | low polyreactivity
QVQLVESGGGLVQAGGSLRLSCAASGNIFYLYAMGWYRQAPGKERELVARITIGGSTYYADSVKGRFTISRDNAKNTVYLQMNSLKPEDTAVYYCAARGPYYRYYYWGQGTQVTVSS | high polyreactivity
QVQLVESGGGLVQAGGSLRLSCAASGNIFYNGMGWYRQAPGKERELVAAIRGSGGRTYADSVKGRFTISRDNAKNTVYLQMNSLKPEDTAVYYCATRRWYAYGVYYWGQGTQVTVSS | high polyreactivity
QVQLVESGGGLVQAGGSLRLSCAASGNIFYQYAMGWYRQAPGKEREFVAAISISGTSTYADSVKGRFTISRDNAKNTVDLQLNSLKPEDTEVYWGQGTQVTVSS | low polyreactivity
QVQLVESGGGLVQAGGSLRLSCAASGNIFYRYAMGWYRQAPGKERELVAAIRSGSSTNYADSVKGRFTISRDNAKNTVYLQMNSLKPEDTAVYYCAARSKYTHSRQSDYWGQGTQVTVSS | low polyreactivity
QVQLVESGGGLVQAGGSLRLSCAASGNIFYSYAMGWYRQAPGKARELVATIRSGGSTYYADSVKGRFTISRDKAKNTVYLQMNSLKPEDTAVYYCAAPYPYRYFEYYWGQGTQVNVSS | low polyreactivity
QVQLVESGGGLVQAGGSLRLSCAASGNIFYSYAMGWYRQAPGKERELVAAISSSGGGTYYADSVKGRFTISRDNAKNTVYLEMNSLKPEDTAVYYCATTARPTRYSSVRYYYWGQGTQVSVSS | high polyreactivity
QVQLVESGGGLVQAGGSLRLSCAASGNIFYSYAMGWYRQAPGNERELVAAISWGGGRTYYADSVKGRFTISRDNAKNTVYLQMNSLKPEDTAVYYCNKVTRGGYDYWGQGTQVTVSS | high polyreactivity
QVQLVESGGGLVQAGGSLRLSCAASGNIFYVYAMGWYRQAPGKEREFVAAIRGSGGSTYYADSVKGRFTISRDNAKNTVYLQMNSLIQEDTAVYYCDAVAWEGSGSEMYSWGQGTQVTVSS | low polyreactivity
QVQLVESGGGLVQAGGSLRLSCAASGNIFYVYAMGWYRQAPGKERELVAVISRNDGSTYYADSVKARFTISRDNAKNTVYLQMNSLKPEDTAVYYCNAEWYFWGQGTQVTVSS | low polyreactivity
QVQLVESGGGLVQAGGSLRLSCAASGNIFYYNAMGWSRQGPGKEMELVAAISSGGSTNYADSVKGRFTISRDNAKNTVYLQMNSLKPEDTAVYYCAANYVTIGSGYYGYDYWGQGTQVTVSS | low polyreactivity
QVQLVESGGGLVQAGGSLRLSCAASGNIICGNAMGWYRQAPGKERELVAAISRRSGSTYYADSVKGRFTISRDNAKNTVYLQMNSLKPEDTAVYYCNTAGRVGTYDYWGQGTQVTVSS | high polyreactivity
QVQLVESGGGLVQAGGSLRLSCAASGNIIDANAMGWYRQAPGKERELVAAITSSGGSTYYADSVKGRFTISRDNAKNTVYLQMNSLKPEDTAVYYCAKSHAIYYWWDESWGQGTQVTVSS | low polyreactivity
QVQLVESGGGLVQAGGSLRLSCAASGNIIWGNAIGWYRQAPGKERELVAAISRRSGSTYYADSVKGRFTISRDIAKNTVYLQMNSLKPEDTAVYYCNTAGRVGTYDYWGQGTQVTVSS | high polyreactivity
QVQLVESGGGLVQAGGSLRLSCAASGNILGYYAMGWYRQAPGKERELVADINWDGGSTYYADSVKGRFTISRDNAKNTVYLQMNSLKPEDTAVYYCNAEVGITWWFREVDYWGQGTQVTVSS | high polyreactivity
QVQLVESGGGLVQAGGSLRLSCAASGNILPVYAMGWYRQAPGKEREFVAAITSRGGSTYYADSVKGRFTISRDNAKITVYLQMNSLKPDDTAVYYCAAKYLRAYGYWGQGTQVTVSS | high polyreactivity

Sequence | polyreactivity (PSR sort gate)
QVQLVESGGGLVQAGGSLRLSCAASGNILTTYAMGWYRQAPGKERELVAAIRWSDGSTYYADSVKGRFTISRDNAKNTVYLQMYSLKPEDNAVYYCAADYHYPTWQGGYHYGYWGQGTQVTVSS | high polyreactivity
QVQLVESGGGLVQAGGSLRLSCAASGNILVSYTMGWSRQAPGKDTELVAAINSGGNTNYADSVKGRFTISRDNAKNTVYLQMNSLKPEDTAVYYCNAYTDSLWVYPFWIYRDYDDWGHGTQVTVSS | low polyreactivity
QVQLVESGGGLVQAGGSLRLSCAASGNISPDYGMGWYRQAPGKERELVAVIRWSDDSTYYADSVKGRFTISRDYAKNSVYLQMNSLKPEDTAVYYCSTDDYDAIDLDYWGQGTQVTVSS | low polyreactivity
QVQLVESGGGLVQAGGSLRLSCAASGNIYDPYAMGWYRQAPGKERELVARISSGGRTDYADSVKGRFTISRDNAKNTVYLQMNSLKPEDTAVYYCAADVLQAYYLTLFGYRYYLVDYWGQGTQVTVSS | low polyreactivity
QVQLVESGGGLVQAGGSLRLSCAASGNIYNNYDMGWYRPAPGKERDLVARIDSGGSTNYADSVKGRFTISRDNAKNTVYLQMNCLKPEDTAVYYCAADFLSHWLLEMDYWGQGTQVTVSS | low polyreactivity
QVQLVESGGGLVQAGGSLRLSCAASGNNFRSYAMGWYRQATGKERELVAAISGRGGSTYYADSVKGRFTISRDNAKNTVYLQMNSLKPEDTAVYYCAAESRRVNYANDYWGQGTQVTVSS | high polyreactivity
QVQLVESGGGLVQAGGSLRLSCAASGNNLCRNAMGWYRQAPGKERELVATISSVGTYYADSVKGRFTISRDNAKNNVYVQMNSLKPEDTAVYSCNARGRRSGYISGYDYWGQGTQVTVSS | high polyreactivity
QVQLVESGGGLVQAGGSLRLSCAASGNTFDIYAMGWYIQAPGKERELVAAISRRGGSTYYAESVKGRFTISRDNAKNTVYLQLNSLKPEDTAVYYCNTVYATRYDYWGQGTQVTVSS | high polyreactivity
QVQLVESGGGLVQAGGSLRLSCAASGNTFDYYAMGWYRQAPGKERELVAAITRGGSTNYADSVKGRFTISRDNAKNTVYLQMNSLKPEDTAGYYCAAEQRAPRFADYDYWGQGTQVTVSS | low polyreactivity
QVQLVESGGGLVQAGGSLRLSCAASGNTFDYYDMGWYSQAPGKERELVAAGSGGSTYYADSVKGRFTISRDNAKHTVYLQMNSLKPEDTAVYYCAARDRYYFGGMYYWGQGTQVTVSS | low polyreactivity
QVQLVESGGGLVQAGGSLRLSCAASGNTFEFYAMGWYRQAPGKERELVAAISASGGRTYYADSVKGRFTISRDNAKNTVYLQMNSLKPEDTAVYYCAAVRKSTRFDYWGQGTQVTVSS | high polyreactivity
QVQLVESGGGLVQAGGSLRLSCAASGNTFEYNAMGWYRQAPGKEREFVAAIDFSDGSTYYADSVKGRFTISRDNAKNTVYLQMNSLKPEDTAVYYCAGDYYSYFGNYYYWGQGTQVTVSS | high polyreactivity
QVQLVESGGGLVQAGGSLRLSCAASGNTFFTYAMGWYRQAPGQERELVAVITSVGSTNYADSVKGLFTISRDNAKNTVYLQMNSLKPEDTAVYYCAAKGYRVYRYYRGRTYDYWGQGSQVTVSS | high polyreactivity
QVQLVESGGGLVQAGGSLRLSCAASGNTFGAYTMGWYRQAPGKEREFVAAISYSGGITFYADSVKGRFTISRDNAKNTVYLQMNSLKPEDTAVYYCAARTYRYGYWYDYWGQGTQVTVSS | high polyreactivity
QVQLVESGGGLVQAGGSLRLSCAASGNTFGPYAMGWYRQAPGKERELVAAITWTDTSTHYADSVKGRFTISRDNAKNTVYLQMNSLKPEDTAVYYCARVYYVNTYRYRAGYYYWGQRTQVTVSS | high polyreactivity
QVQLVESGGGLVQAGGSLRLSCAASGNTFGYNAMGWYRQAPGKERELVASITWSGGSTYYADSVKGRFTISRDNAKNTVYLQMNSLKPEDTAVYYCNADVRFDYWGQGTQVTVSS | low polyreactivity
QVQLVESGGGLVQAGGSLRLSCAASGNTFGYYAMGWYRQAPGKERELVAAITSSGGRTYYADSVKGRFTISRDNAKNTVYLQMNSLKPEDTAVYYCAAGRVGARYPTYRFYYWGQGTQVTVSS | high polyreactivity
QVQLVESGGGLVQAGGSLRLSCAASGNTFHTYTMGWYRQAPGKERELVAVITRSGGRTYYADSVKGRFTISRDNAKNTVYLQMNSLKPEDTAVYYCAVLGAGQTWLDYWGQGTQVTVSS | high polyreactivity
QVQLVESGGGLVQAGGSLRLSCAASGNTFKVYVMGWYRQAPGKERELVAAISRRGGNTYYADSVKGRFTISRDNAKNTVYLQMNSLKPEDTAVYYCAAYRAPYYEYDYWGQGTQVTVSS | high polyreactivity
QVQLVESGGGLVQAGGSLRLSCAASGNTFKYYAMGWYRQAPGKERELVAAISYSGGSTYYADSVKGRFTISRDNAKNTVYLLMNSLKPEVTAVYYCAADLDSERYYWGQGTQVTVSS | low polyreactivity
QVQLVESGGGLVQAGGSLRLSCAASGNTFLVNAKGWYRQAPGKERELVATIRRGGSTNYADSVKGRFTISRDNAKNTVYLLMNSLKPEDTAVYYCNADRVGYWSSNMDYWGQGTEVTVSS | low polyreactivity
